Laboratory results reported in article PMC3510498, “RecOR complex including RecR N-N dimer and RecO monomer displays a high affinity for ssDNA”.

Assays:
[1] = molecular target: TTERecO (Thermoanaerobacter tengcongensis MB4, UniProt Q8RB48 1-247); test: EMSA; 10 uM protein, 2 uM DNA; SPR: 20 mM HEPES pH 7.4, 200 mM NaCl, 0.005% Tween 20, 25 C, SA chip; EMSA: 20 mM HEPES pH 7.4, 200 mM NaCl, 25 C, 30 min, 2 uM DNA; conditions: protein: recombinant; tags: N-terminal His6; label: 5' biotin (SPR)
[2] = molecular target: TTERecR P16G;TTERecO (Thermoanaerobacter tengcongensis …, UniProt Q8RDI4;Q8RB48 1-199;1-247, P19G|); test: SPR; as strong as RecOR; SPR: 20 mM HEPES pH 7.4, 200 mM NaCl, 0.005% Tween 20, 25 C, SA chip; EMSA: 20 mM HEPES pH 7.4, 200 mM NaCl, 25 C, 30 min, 2 uM DNA
[3] = molecular target: TTERecR R25G;TTERecO (Thermoanaerobacter tengcongensis …, UniProt Q8RDI4;Q8RB48 1-199;1-247, R28G|); test: as above
[4] = molecular target: TTERecR (Thermoanaerobacter tengcongensis MB4, UniProt Q8RDI4 1-199); test: SPR; SPR: 20 mM HEPES pH 7.4, 200 mM NaCl, 0.005% Tween 20, 25 C, SA chip; EMSA: 20 mM HEPES pH 7.4, 200 mM NaCl, 25 C, 30 min, 2 uM DNA
[5] = molecular target: TTERecR;TTERecO (Thermoanaerobacter tengcongensis …, UniProt Q8RDI4;Q8RB48 1-199;1-247, |); test: as above
[6] = molecular target: TTERecR P16G (Thermoanaerobacter tengcongensis MB4, UniProt Q8RDI4 1-199, P19G); test: as above
[7] = molecular target: TTERecR R25G (Thermoanaerobacter tengcongensis MB4, UniProt Q8RDI4 1-199, R28G); test: as above

B1: 60 mer ssDNA (ssDNA)
DNA: ATAAATATCGATGTTAAAGAGGATAAGATTTATAAAATAGCTTCTTATTTTCCTGTAGTA
Q: Which results are given for B1?
A: binding result [1]: no binding; binding result [2]: binds; binding result [3]: binds; binding result [4]: no binding; Kd [5]: 0.931 nM

B2: 60 mer dsDNA (dsDNA)
DNA 1: ATAAATATCGATGTTAAAGAGGATAAGATTTATAAAATAGCTTCTTATTTTCCTGTAGTA
DNA 2: TACTACAGGAAAATAAGAAGCTATTTTATAAATCTTATCCTCTTTAACATCGATATTTAT
Q: Does B2 bind [2]?
A: binds

Q: Does B2 bind [3]?
A: binds

Q: What about the Kd [4] of the same binder?
A: 24800 nM

Q: Does B2 bind [6]?
A: no binding

Q: Does B2 bind [7]?
A: no binding

Q: What about the Kd [5] of the same binder?
A: 26.4 nM
